US20090221680, “Aptamers that bind thrombin with high affinity” (published 2009)

Experiments:
[1] = target: thrombin (endogenous, clotting assay in plasma or whole blood) (Homo sapiens, UniProt P00734;P00734 P00734:328-363,P00734:364-622); assay: inhibition; ACT at 10 uM
[2] = target: T1, thrombin (alpha-thrombin) (Homo sapiens, UniProt P00734;P00734 P00734:315-363,P00734:364-622); assay: filter; DPBS Ca2+ Mg2+, 0.1 mg/ml BSA
prothrombin = prothrombin (Homo sapiens, UniProt P00734 P00734:44-622); assay: filter; 50 nM prothrombin; conditions: tags: Athens Research
Procedure: Dot blot binding assays were performed throughout the selections to monitor the protein binding affinity of the pools. Trace ³²P-labeled RNA was combined with a dilution series of human Thrombin (1 nM-1000 nM) and incubated at room temperature for 30 minutes in 1×DPBS (w/ Ca²⁺ and Mg²⁺) (Gibco, Catalog #14040, Invitrogen, Carlsbad, Calif.) plus 0.1 mg/ml BSA in a final volume of 30 μl. The binding reactions were analyzed by nitrocellulose filtration using a Minifold I dot-blot, 96-well vacuum filtration manifold (Schleicher & Schuell, Keene, N.H.). A three-layer filtration medium was used, consisting (from top to bottom) of Protran nitrocellulose (Schleicher & Schuell, Keene, N.H.), Hybond-P nylon (Amersham Biosciences, Piscataway, N.J.) and GB002 gel blot paper (Schleicher & Schuell, Keene, N.H.). RNA that is bound to protein is captured on the nitrocellulose filter, whereas the non-protein bound RNA is captured on the nylon filter. The gel blot paper was included simply as a supporting medium for the other filters. Following filtration, the filter layers were separated, dried and exposed on a phosphor screen (Amersham Biosciences, Piscataway, N.J.) and quantified using a Storm 860 Phosphorimager® blot imaging system (Amersham Biosciences, Piscataway, N.J.).
Based on pool binding monitored throughout the selections as described above, Round 9 Pools from both Selection #2 and #3 were also cloned using a TOPO TA Cloning kit (Invitrogen, Carlsbad, Calif.) according to manufacturer's instructions, and sequenced. Of the 136 sequences obtained from Round 9 of both selections, 130 unique sequences were selected for assaying in a single-point dot blot screen against thrombin and prothrombin to test for selective binding to thrombin. Clones were ordered from IDT (Coralville, Iowa) at 25 μmole synthesis scale. Clone transcripts were 5′ end labeled with γ̅³²P ATP and spin purified with Centrisep columns (Princeton Separations, Adelphia, N.J.) to remove excess label. Trace amounts of labeled clone were incubated with +/−10 nM Thrombin (or +/−50 nM prothrombin) and 0.1 mg/ml BSA in a total volume of 30 μl 1×DPBS (w/ Ca²⁺ and Mg²⁺) (Gibco, Catalog #14040, Invitrogen, Carlsbad, Calif.) for 30 minutes. Post incubation, the binding reaction applied the dot-blot binding assay apparatus previously described.

[3] = target: T1, thrombin (alpha-thrombin); assay: filter; 10 nM thrombin

| Binder | activity [1] [s] | Kd [2] [nM] | binding signal (prothrombin) [% bound] | binding signal [3] [% bound] |
| --- | --- | --- | --- | --- |
| CTAACTGCCTAGGTTGGGTAGGGTGGTGGCAGTTAG (ssDNA) [ARC2180] | 516 | – | – | – |
| TCCCAATCGGTCCTGGTAATATATTGGTCGGGGTGGCTGAGGATCGATC (ssDNA) [AMX(399)_H3] | – | 1.93 | 45.5 | – |
| TCCCACGATCCGGGGTGTCTTTCGTGGGCTGGGTGGCTGAGGATCGATC (ssDNA) [AMX(399)_E1] | – | – | 39.1 | 37.6 |
| TCCCGCGATCTCTGGGGTAACGTTTTGGTGTGGGTGGCTGAGGATCGATC (ssDNA) [AMX(399)_D3] | – | – | 25.3 | 21.7 |
| TCCCGATCGCTGTCCTAGGATGGGTAGGGTGGTGGCTGAGGATCGATC (ssDNA) [AMX(399)_D2] | – | 1.33 | – | – |
| TCCCGAGTGATCCGGGGTGTTTTTTTGGGTTGGGTGGCTGAGGATCGATC (ssDNA) [AMX(398)_E3] | – | 0.89 | 47.5 | – |
| TCCCGATTTCGATTCTGGTAGTGTTTTCTGGGTGGCTGAGGATCGATC (ssDNA) [AMX(399)_E3] | – | – | 13.3 | 13 |
| TCCCGCATTGAATAGGACTCAGGGATGGTGTGGGTGGCTGAGGATCGATC (ssDNA) [AMX(399)_D6] | – | – | 22 | 22.7 |
| TCCCTCGATCTAAGGTGCTTTTAGTGGTTTGGGTGGCTGAGGATCGATC (ssDNA) [AMX(399)_D7] | – | – | 24.9 | 7.59 |
| TCCCGATTGTCATAGGTGGTTTGTCTGGGTAGGGTGGCTGAGGATCGATC (ssDNA) [AMX(399)_E10] | – | – | 28.9 | 29.8 |
| TCTCATTCGTTCCGGGGTATTTAGTGGGTCGGGTGGCTGAGGATCGATC (ssDNA) [AMX(399)_C10] | – | – | 34.3 | 35.4 |
| AACTGCCTAGGTTGGGTAGGGTGGTGGCAGTT (ssDNA) [ARC2178] | 429 | – | – | – |
| GACTAACTGCCTAGGTTGGGTAGGGTGGTGGCAGTTAGTC (ssDNA) [ARC2182] | 518 | – | – | – |
| TACCTCAGGGATGGTGTGGGTGGCTGAGGTA (ssDNA) [ARC2174] | 416 | – | – | – |
| TCCCAAGATCGGTACATACAGTGGGTGGTGAGGGTGGCTGAGGATCGATC (ssDNA) [AMX(395)_D11] | – | 5.55 | – | – |
| TCCCGAGCGATACTGCCTAGGTTGGGTAGGGTGGTGGCTGAGGATCGATC (ssDNA) [AMX(398)_D6 (ARC2026)] | – | 0.29 | – | – |
| TCCCATCGATACGGGGTGGAATCTTGGGGTGGGTGGCTGAGGATCGATC (ssDNA) [AMX(399)_E9] | – | – | 13.8 | 14.8 |
| ACCTCAGGGATGGTGTGGGTGGCTGAGGT (ssDNA) [ARC2173] | 415 | – | – | – |
| AMX(395)_A4 (ssDNA) DNA: TCCCGGGAGATCGCTTCGAAAATGGTTGGCGTGGGTGGCTGAGGATCGATC | – | 29.4 | – | – |
| TCCGATTGACGTGGTGGGTTACTGGTTTGGGTGGCTGAGGATCGATC (ssDNA) [AMX(398)_A1] | – | 0.3 | 18 | – |
| TCCCGATTGATTCTGGGAGGTTTGGTTCTGGGTGGCTGAGGATCGATC (ssDNA) [AMX(399)_D4] | – | – | 9.02 | 10.4 |

| Binder | activity [1] [s] | Kd [2] [nM] | binding signal (prothrombin) [% bound] | binding signal [3] [% bound] |
| --- | --- | --- | --- | --- |
| TCTCGATCGGACGTGGTGGGTTACTGGCTTGGGTGGCTGAGGATCGATC (ssDNA) [AMX(399)_D8] | – | – | 19.6 | 22.2 |
| ACTACCTCAGGGATGGTGTGGGTGGCTGAGGTAGT (ssDNA) [ARC2176] | 394 | – | – | – |
| TCCCGATCTATCCGGGGTACATTTGTGGTTTGGGTGGCTGAGGATCGATC (ssDNA) [AMX(399)_C12] | – | – | 17.2 | 18.7 |
| TCCCGGGTGGTTATCTTCTCAGGGATGGTGTGGGTGGCTGAGGATCGATC (ssDNA) [AMX(395)_C1] | – | 7.48 | – | – |
| ACTGCCTAGGTTGGTGTGGTTGGTGGCAGT (ssDNA) [ARC2184] | 368 | – | – | – |
| TCCCAGGATCGATTCTGGTATTGTTGGTGGGGGTGGCTGAGGATCGATC (ssDNA) [AMX(399)_D9] | – | – | 19.7 | 20.3 |
| TAACTGCCTAGGTTGGGTAGGGTGGTGGCAGTTA (ssDNA) [ARC2179] | 462 | – | – | – |
| CTACCTCAGGGATGGTGTGGGTGGCTGAGGTAG (ssDNA) [ARC2175] | 392 | – | – | – |
| TCCCATCGAGCCGGGTATGTTTCGTTGGGCTGGGTGGCTGAGGATCGATC (ssDNA) [AMX(399)_E5] | – | – | 12.5 | 15 |
| TCCCTAGATCGGGTCCTGGTAGTGTTTCTGGGTGGCTGAGGATCGATC (ssDNA) [AMX(399)_F5] | – | 2.35 | 49.3 | – |
| TCCTGAGGGATCAGGCTAGGTTGGGTAGGGTGGTGGCTGAGGATCGATC (ssDNA) [AMX(398)_C8 (ARC2027)] | – | 0.42 | 48.5 | – |
| TCCCATCGAACCGCGGGTAATCTTATGGGTCGGGTGGCTGAGGATCGATC (ssDNA) [AMX(399)_E4] | – | – | 7.29 | 7.5 |
| TCCCATCGATCTGTGGTGGTTTTGTGGTTTGGGTGGCTGAGGATCGATC (ssDNA) [AMX(399)_D10] | – | – | 40.8 | 38.8 |
| CCTCAGGGTTGGTGTGGTTGGCTGAGG (ssDNA) [ARC2183] | 354 | – | – | – |
| TCCCGTTCGAGTCCTGGTGTTTTATTGGCCTGGGTGGCTGAGGATCGATC (ssDNA) [AMX(399)_D5] | – | 2.26 | 23.8 | – |
| GACTACCTCAGGGATGGTGTGGGTGGCTGAGGTAGTC (ssDNA) [ARC2177] | 401 | – | – | – |
| TCCCGGGATCGAGTCCGATTAGGGATGGTGTGGGTGGCTGAGGATCGATC (ssDNA) [AMX(395)_B7] | – | 14.5 | – | – |
| TCCCAGAGAGCCGGGGTATAATTGTGGTGTGGGTGGCTGAGGATCGATC (ssDNA) [AMX(399)_D11] | – | – | 39.5 | 41.3 |
| ACTAACTGCCTAGGTTGGGTAGGGTGGTGGCAGTTAGT (ssDNA) [ARC2181] | 478 | – | – | – |
| TCCCATCGATCTGTGGTCTTTTTTGGTGTGGGTGGCTGAGGATCGATC (ssDNA) [AMX(399)_D12] | – | – | 32.2 | 32.6 |
